Test results taken from PMC10987609, “ATR limits Rad18-mediated PCNA monoubiquitination to preserve replication fork and telomerase-independent telomere stability” (The EMBO Journal, 2024).

Molecular target: T1, ubiquitinated SFB-tagged PCNA purified from HEK293T cells (human | , UniProt P12004 1-261; P0CG48 1-76, ubiquitinated with His-tagged ubiquitin; the paper places Rad18-mediated monoubiquitination at lysine 164)
T1 construct: PCNA, human, full-length cDNA; wild-type ubiquitin (Ub), conjugated to PCNA; the transfected plasmid is probably the N-terminal one; also called ubiquitinated SFB-PCNA; monoubiquitinated PCNA; source: HEK293T stably expressing His-tagged Ub, transfected with SFB-PCNA, treated with HU and ATRi; purified (cobalt resin under denaturing conditions, then streptavidin beads, biotin elution)
Experiment: pull-down; GST-UBZ4 on glutathione-Sepharose resin incubated with ubiquitinated SFB-tagged PCNA purified from HEK293T cells; NETN buffer, 4 °C, 1 h
Conditions: both partners purified

- binding result: binds
B1: GST-SLX4-UBZ4-WT (domain or fragment, human, UniProt Q8IY92 292-361, looked up)
chain: GLFFCQICQKNLSAMNVTRREQHVNRCLDEAEKTLRPSVPQIPECPICGKPFLTLKSRTSHLKQCAVKME
notes: SLX4, human, fragment with the tandem UBZ4 domains, amino acids 292–361; also called GST-UBZ4; source: E. coli, purified (glutathione-Sepharose, used on beads)
